This note sets out measurements from PMC11479587.

The test concerns the target Ssa1 (yeast (S. cerevisiae)) (UniProt P10591).

Chain of Ssa1 (yeast (S. cerevisiae)) (P10591 whole entry): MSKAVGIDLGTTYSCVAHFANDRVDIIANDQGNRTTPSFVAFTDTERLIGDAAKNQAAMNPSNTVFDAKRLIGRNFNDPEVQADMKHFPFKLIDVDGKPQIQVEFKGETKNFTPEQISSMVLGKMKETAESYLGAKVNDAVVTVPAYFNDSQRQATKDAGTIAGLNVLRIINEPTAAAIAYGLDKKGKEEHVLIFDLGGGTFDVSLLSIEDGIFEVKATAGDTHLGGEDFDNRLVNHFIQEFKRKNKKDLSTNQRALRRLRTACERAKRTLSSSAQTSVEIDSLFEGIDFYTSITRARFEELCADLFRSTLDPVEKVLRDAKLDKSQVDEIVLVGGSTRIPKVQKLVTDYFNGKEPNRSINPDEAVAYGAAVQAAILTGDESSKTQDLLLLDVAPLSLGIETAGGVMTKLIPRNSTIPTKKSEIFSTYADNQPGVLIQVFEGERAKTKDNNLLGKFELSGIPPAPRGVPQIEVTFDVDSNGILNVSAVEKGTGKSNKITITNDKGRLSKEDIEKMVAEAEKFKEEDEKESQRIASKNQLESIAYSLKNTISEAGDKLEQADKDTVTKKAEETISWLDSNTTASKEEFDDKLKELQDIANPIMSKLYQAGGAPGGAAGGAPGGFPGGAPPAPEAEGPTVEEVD

In the case of “Sse1-2 variant (N572Y E575A) (from UniProt P32589 1-693) (natural protein)”, the renaturation of heat-aggregated GFP by Ssa1-Sis1 (1 µM each); concentration of Sse1-2 against Sse1 WT needed for the same activity; no inhibition up to 2 µM Sse1-2 is 20 times.
